Laboratory results from PMC7767363, “Development of HER2-Specific Aptamer-Drug Conjugate for Breast Cancer Therapy”.

Target: HER2 (His-tagged HER2 protein) (UniProt P04626 23-652)
Assay: Ni-NTA bead pull-down with RT-qPCR quantification; 1.5 mM Mg2+; 3 nM HER2, aptamer 0-100 nM; 30 mM Tris-HCl, 150 mM NaCl, 1.5 mM MgCl2, pH not stated, 30 min at room temperature (bead assay); cells 37 C, 30 min to 4 h
Settings: tags: His

Binder: AGCCGCGAGGGGAGGGAUAGGGUAGGGCGCGGCU (XNA, 2'-fluoro C and U (all pyrimidines)) [HER2 RNA aptamer (2'-F pyrimidine)]
- Kd: 16.5 ± 4.4 nM
